The record followed here is paper PMC10951451 (Current Therapeutic Research, Clinical and Experimental, 2024).

Like-named read-outs stand apart in the source and are kept apart here.

This data set is classed as in vivo, Norwegian domestic pigs (Sus scrofa domesticus). The note with it: for AUC0–∞ with AUC of porcine insulin subtracted: mean (SD).

For insulin aspart, the “AUC0–∞ with AUC of porcine insulin subtracted” value is 7908 (1159) mU/L/min (glucagon group: 10 IU insulin aspart sc + 100 µg glucagon, n = 6) and 5372 (994) mU/L/min (placebo group: 10 IU insulin aspart sc + saline, 1 of 6 pigs excluded). The “Median AUC0–∞ plasma insulin concentration” value (glucagon group: 10 IU insulin aspart sc + 100 µg glucagon) is listed as 8419 mU/L/min and the “Median AUC0–∞ plasma insulin concentration” value (placebo group: 10 IU insulin aspart sc + saline) turned out to be 6211 mU/L/min.
